Target: T1, human DNA polymerase α catalytic subunit p180 with the N-terminus (residues 1–334) deleted (human, UniProt P09884 335-1462)
T1 sequence (looked up): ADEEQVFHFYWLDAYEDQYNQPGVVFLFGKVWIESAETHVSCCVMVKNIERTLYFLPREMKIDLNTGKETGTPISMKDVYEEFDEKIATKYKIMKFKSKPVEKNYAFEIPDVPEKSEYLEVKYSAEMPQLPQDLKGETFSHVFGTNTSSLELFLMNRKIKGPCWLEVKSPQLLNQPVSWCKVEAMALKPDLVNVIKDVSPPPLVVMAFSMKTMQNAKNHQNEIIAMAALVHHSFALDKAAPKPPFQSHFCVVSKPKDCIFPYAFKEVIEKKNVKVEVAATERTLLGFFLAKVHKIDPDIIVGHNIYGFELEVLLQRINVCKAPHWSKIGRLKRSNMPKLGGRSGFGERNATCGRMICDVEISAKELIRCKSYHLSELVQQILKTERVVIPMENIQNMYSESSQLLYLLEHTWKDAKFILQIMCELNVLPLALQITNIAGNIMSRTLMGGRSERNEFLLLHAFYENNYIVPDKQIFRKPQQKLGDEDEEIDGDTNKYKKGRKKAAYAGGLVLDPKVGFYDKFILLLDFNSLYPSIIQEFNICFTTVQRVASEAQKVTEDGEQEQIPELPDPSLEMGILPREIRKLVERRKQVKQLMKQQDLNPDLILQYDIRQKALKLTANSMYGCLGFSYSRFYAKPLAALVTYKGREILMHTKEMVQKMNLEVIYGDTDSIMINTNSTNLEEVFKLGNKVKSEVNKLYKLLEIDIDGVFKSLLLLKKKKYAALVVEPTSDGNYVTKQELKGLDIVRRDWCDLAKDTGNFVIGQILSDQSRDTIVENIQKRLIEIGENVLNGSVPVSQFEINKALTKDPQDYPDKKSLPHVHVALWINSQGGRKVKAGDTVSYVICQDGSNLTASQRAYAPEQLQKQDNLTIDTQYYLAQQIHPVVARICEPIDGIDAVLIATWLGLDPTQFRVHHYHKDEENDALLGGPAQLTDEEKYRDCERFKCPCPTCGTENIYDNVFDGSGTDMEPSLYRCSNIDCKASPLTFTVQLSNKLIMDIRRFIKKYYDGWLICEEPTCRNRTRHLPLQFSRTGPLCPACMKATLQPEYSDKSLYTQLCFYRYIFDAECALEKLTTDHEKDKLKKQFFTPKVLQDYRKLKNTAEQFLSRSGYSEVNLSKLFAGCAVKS
Experiment: cryo-EM structure

binding result: binds
B1: human DNA polymerase α accessory subunit p70 (natural protein, UniProt Q14181 1-598, looked up)
chain: MSASAQQLAEELQIFGLDCEEALIEKLVELCVQYGQNEEGMVGELIAFCTSTHKVGLTSEILNSFEHEFLSKRLSKARHSTCKDSGHAGARDIVSIQELIEVEEEEEILLNSYTTPSKGSQKRAISTPETPLTKRSVSTRSPHQLLSPSSFSPSATPSQKYNSRSNRGEVVTSFGLAQGVSWSGRGGAGNISLKVLGCPEALTGSYKSMFQKLPDIREVLTCKIEELGSELKEHYKIEAFTPLLAPAQEPVTLLGQIGCDSNGKLNNKSVILEGDREHSSGAQIPVDLSELKEYSLFPGQVVIMEGINTTGRKLVATKLYEGVPLPFYQPTEEDADFEQSMVLVACGPYTTSDSITYDPLLDLIAVINHDRPDVCILFGPFLDAKHEQVENCLLTSPFEDIFKQCLRTIIEGTRSSGSHLVFVPSLRDVHHEPVYPQPPFSYSDLSREDKKQVQFVSEPCSLSINGVIFGLTSTDLLFHLGAEEISSSSGTSDRFSRILKHILTQRSYYPLYPPQEDMAIDYESFYVYAQLPVTPDVLIIPSELRYFVKDVLGCVCVNPGRLTKGQVGGTFARLYLRRPAADGAERQSPCIAVQVVRI

Source: PMC10268227 (Nature structural & molecular biology, 2023)
